Assay results published in article PMC10090083, “Structural basis of impaired disaggregase function in the oxidation-sensitive SKD3 mutant causing 3-methylglutaconic aciduria” (Nature Communications, 2023).

Biological target: the molecule itself
Assay: not stated; oligomeric state of the isolated Ank domains in solution (Supplementary Fig. 1a, b); method not given

B1: Ank domain of human SKD3 isoform-1 (ANK_(iso1), residues 132-351) (domain or fragment, UniProt Q9H078 132-351, looked up)
chain: SNKDAALLEAARANNMQEVSRLLSEGADVNAKHRLGWTALMVAAINRNNSVVQVLLAAGADPNLGDDFSSVYKTAKEQGIHSLEDGGQDGASRHITNQWTSALEFRRWLGLPAGVLITREDDFNNRLNNRASFKGCTALHYAVLADDYRTVKELLDGGANPLQRNEMGHTPLDYAREGEVMKLLRTSEAKYQEKQRKREAEERRRFPLEQRLKEHIIGQE
notes: human SKD3 (CLPB) isoform-1, Ank domain construct, residues 132-351; TEV-cleavable tag; also called isolated Ank domain of SKD3; source: E. coli BL21-CodonPlus (DE3)-RIL, purified (IMAC, anion exchange, SEC); not shown: His6-SUMO, N-terminal, cleaved
  stoichiometry N: 2
